The nature of the data set: soluble on expression in E. coli; label from the status in PepcDB or PDB records.
Take “MSEQTLEYFLNKGTIRRKDAADIEWYHAANSKSKLMEALRGSAQMIEADVLLRGADPEEPIMAHPPAKDSDITLQDWLKEVVKTDKGIKLDFKSLAAVSQSMSLLEEIRDQLKGPVWINADILPGPGGTATPVDPHVFLQEVAQRSENDVLSLGWTTGWTANVDNPGYSWEMVHQMEELCRPLKQPVTFPVRASLLPMSFPQFQWLLEQSDRSEILH”: the “soluble on expression in E. coli” value is “not soluble”.
Regarding “MSNQQALVIFSGGQDSTTCLIQAIQTYGRENVQAITFQYGQRHAVELERARWIAQDLGVKQTVLDLSLMRQITHNALMDDTAAIETAENGVPNTFVDGRNALFLLYAAIYAKGQGIRHIIAGVCETDFSGYPDCRDVFVKSMNVTLNLAMDYDFQIHTPLMYLTKAQTWALADEMGVLDYIREQTHTCYNGIVGGCRECPSCILRERGLAEYLESKKAV”, the “soluble on expression in E. coli” value is “not soluble”.
Next, “MGSDKIHHHHHHMVNSEQALHQHDPAPILQLDKVSKSFGPVNVINQVSIDVRPGRVLALLGENGAGKSTLIKMMSGVYQPDGGQILVDGKPTTLPDTKTAESFGIATIHQELNLVPTMTVAENVMLGRTPRKWGLVNFKHLRRQAQAALDLIGVDVDLNAQVGSLGIARQQMVEIAKALSMNARILILDEPTAALTGREIDQLFKVVDQLKEKGVAMVFISHHLDEIARIGDTVSVLRDGQFIAELPADTDEDELVRLMVGRSIENQYPRSAPEIGQPLLEVKNLNAEGRFTDISLTVRAGEVVGLAGLVGAGRTEVVRSIAGVDKVDSGEVIVAGKKLRGGDISEAIKNGIGHIPEDRKAQGLVLGSSVEDNLGLATLASTARAGLVDRSGQHKRAAEVAEKLRIRMASLKQPISDLSGGNQQKAVFGRWVLAGSNVLLLDEPTRGVDVGAKVEIYNIINEMTEKGGAVLMVSSELPEVLGMADRILVMSGGRIAGELPAKGTTQDDVMALAVSQVDDSITEEAAAEIENTKEDR”: “not soluble”; “MMQPVIRKNHMDIAWHEYTDENGADIPVTQASLTEKASIIGRVGIMFLSCGTGAWRVRSSMNTLAEIMGITCTADIGLMSIEYTCFDGEEGFTQSLCLTNTGVNTSKLNRLEHFIREFEIDGKDMSGEELHTLLDDIER”: “not soluble”.
Next, “GNNMYKLSENNHKSLLENLKRRGIIDDDDVYNTMLQVDRGKYIKEIPYIDTPVYISHGVTISAPHMHALSLKRLINVLKPGSRAIDVGSGSGYLTVCMAIKMNVLENKNSYVIGLERVKDLVNFSLENIKRDKPELLKIDNFKIIHKNIYQVNEEEKKELGLFDAIHVGASASELPEILVDLLAENGKLIIPIEEDYTQVLYEITKKNGKIIKDRLFDVCFVSLKKN”: “soluble”.
Next, “MRSVLQSEVSECGLASLAMVANAHGKHLTLSQLRQRFPSSLKGAKLTHLVHIAQQLGFSTRPLRLDMEDLGKLKLPCILHWDLNHFVVLAKVGTTKVTIYDPAIGKRKLSLNEVSKYFTGIALELTTTTE”: “not soluble”.
Consider “MWGETFDDFENDEGEMAMAKQNLIAEPARADFTFAKLPLGIQPVDFMKTHFAETAGKSMQFRKGTTTLAFVYEPATPADKGGIIVAVDSRASSGEYISSKSVMKILDIGDRMVATMAGGAADCQFWTRIVAKYCTLYELREKTSITVSAASKYFANTLYGYRGQGLSVGSMVAGYDKKGPQIFKVDSEGDRCQLKVCSVGSGSLNAYGILDNHYKPKMTDDEARKLGLRAIMHATYRDSGSGGVCNLCHITPTEKIRLPPMDVSKLWYEFADELGRDITYNPVE”, for which the “soluble on expression in E. coli” value is listed as “soluble”.
The entry for “MIQQESRLKVADNSGAREVLVIKVLGGSGRRYANIGDVVVATVKDATPGGVVKKGQVVKAVVVRTKRGVRRPDGSYIRFDENACVIIRDDKSPRGTRIFGPVARELRDKDFMKIISLAPEVI” is “soluble”.
The entry for “MSIIEDNKISFVIPTINEEKTIGSVIDGIHENFPNAEIILVDTNSTDKTKEIAKSKGATVIEEPRKGYGRAYQTGIPAAKGDIIVCMDGDGTYPTDIVKPLIEILILDKVDFISCDRITFRTSTNYTTLHYVGNMVLNLTIRILFKVRMVDSQSGMWIFRSELYKKMKNLGYGMSFSQNIKIEAVRHGVFIEIPIRYGVRITKPKLKTWHDGFHNLFALFIKRVSELEHHHHHH” is “soluble”; for “MSLLASLGGLVSCAAKVHFKEEGNAMNELIANHDFDFRQLVTAAEGQPVTDTFQIAKAFGKRHADVLRALKNCHCSEDFRRAHFCVSEKINNLGIFDKKQIYYRMDFSGFVMLVMGFNGAKADAVKEAYINAFNWMSAELRKYSESYEAERNAIMLEYMKEKDVASMSGRLLNRWGKIKKPQLLARIGRLEQHGQTVIPGLTNEGHHHHHH” it is “not soluble”.
Next, “MSLQSSIYRIRHLAKPAYREEFKGDIECSTAAYKEVLEDTSTDSTSKLPLEAKFGKMSIIKLVLLLIISTIIYANDKNISNLHITSDSLIIDRTKQKAAYLGNVIVYFDNAILRTKELYIFYKTIDEKQTIDHIVVPTKLTVERKINNELLLADSAKYFCDNKQLILLGNVILQRDDNVLKTNKLIYYVDIIKK”: “not soluble”; “MNTQILGLHHVTAMTSSAEKIYHFFTDILGLRLIKKTVNQDDIETYHLFFADDAGSPGTDMTFFDFPGLPKGTKGTNTISRTSFRVKDDATLDYWVSRFNEYAIDHGEIQERFGKKYLEFEDFDNQRYQLISDEKNQCVAAGTPWKKSNVPSEHALIGLGPAFVTVENYEHLQLVLTEVLGFKLIDAEGSFHLFEVGEGGNGASIIVEHREDLPAAQEGYGNVHHLALRVADEEALRFWIEKINRLEFPNSGFVERFYFKSEYFLAATHVLFELATDGPGFLEDETYEHAGEKLSLPPFLEPKRAGIEEFVRPFDTSDANVQRN”: “not soluble”.
Take “MRQWTATHMAKLARKASIAVGKKGTDLPGQIARRVDHNILRKLAKQVDDIVFISGTNGKTTTSNLIGHTLKKNQINIIHNNEGANMAAGITSAFIMQSSKNTNIAIIEIDEGSIPRVLNEVTPSMMVFTNFFRDQMDRFGEIDIMVDNIAKSISNKGIKLLLNADDPFVSRLKIASHSIVYYGMKKFAHDFEQSTMNESKYCPNCGRLLQYDYIHYNQIGHYHCECGFKREEPTYEVSSFDASPFLKMIINQSEFNMKIAGDFNSYNAIAAYTVLRELGLNDDAIRKGFETYTSDNGRMQYFSKNKKEAMINLAKNPAGMNASLSVGEQIDDKKIYVISLNDNAADGRDISWIYDADFEKLATQDIEAIIVSGTRAEELQLRLKLAEVEVPIKVEKDIYKATALTMKYSSFTVAIPNYTSLTPMLEQLNRSFEGGQS”: the “soluble on expression in E. coli” value is “not soluble”.
The entry for “SKDQHLRGFFSDSTSFNILMDMLFIKGKYKSALQVLIEMKNQDVKFTKDTYVLAFAICYKLNSPESFKICTTLREEALLKGEILSRRASCFAVALALNQNEMAKAVSIFSQIMNPESIACINLNIIIHIQSNMLENLIKTLKNAAEGNLSKFVKRHVFSEEVLAKVREKVKDVPALVAKFDEIYGTLHITGQVTTDSLDAVLCHTPRDRKSHTLLLNKRMVSRRTFQPLSQSLLAE” is “soluble”.
The entry for “MLLSSCQSLFSPAYQSTLRPSDNPQTVEQVQKNDPRAQMGAREHPRIVASYGGEYRDAKTERLVARIAGALTAVSENPQQSYRITILNSPAINAFALPGGYLYVTRGLLALANDASEVAAVLSHEMGHVTANHGIERQRREEAEVIASRVVAEVLSSDLAGKQALARGKLRLAAFSRQQELQADVIGVRMLGEAGYDPYASPRFLDSMAAYARFSSADPENDQSLDFLSSHPNTPQRIELARRHARAFGQEGQVGDRGRDWFLDGIDGLLYGDSPQEGYVRGQTFLHGTLGIRFDVPEGFVIDNKVEAVLATGPGDMAIRFDGVADPKQTSLANYLTSGWVAGLLPETVKETQINGLEAATARASADKWDFDVTVIRVGQQIFRFLTAVPKGNTQLDSIANVLRTSFRKMTPQEIASLKPLRVRVVTVKPGETVATMAARMMGTERKLDMFRMINAMSATATLQPGQRVKIISELEHHHHHH” is “not soluble”.
The entry for “SSCTIEKILTDAKTLLERLREHDAAAESLVDQSAALHRRVAAMREAGTALPDQYQEDASDMKDMSKYKPHILLSQENTQIRDLQQENRELWISLEEHQDALELIMSKYRKQMLQLMVAKKAVDAEPVLKAHQSHSAEIESQIDRICEMGEVMRKAVQVDDDQFCKIQEKLAQLELENKELRELLSISSESLQARKENSMDTASQAIK” is “soluble”; for “MSLESTNRLRYLIAGTGGVGGSIAGFLSLAGKDVTCIARGAHLQAIQQDGLKLKSDLKGEHALRINACTAEEYNGKADVIFVCVKGYSVDSITELIKRAAHDRTIVIPILNVYGTGPRIQRLVPGVTVLDGCIYIVGFVSGPGEITQMGTIFRLVYGAHRGILVPAGLMEAVQRDLQESGIKVEISSDINRDTFIKWSFISAMAVTGAYFDVPMGEVQKPGKVRDTFIGLSTESAALGKKLGIEFKEDIVTYNLKVIDKLAPESTASMQKDIARGHESEVQGLLFDMITAAEEQGIDVPTYREVAKKFIKQEGHHHHHH” it is “soluble”; for “MQKVRLIVSGRVQGVGFRYATHTLALDIGDIYGRVWNNNDGTVEILAQSKDSDKIATFIQEVRKGPSKWAKVTYVDVTMANFEDFQDFQIGK” it is “not soluble”.
For “MASMQKLINSVQNYAWGSKTALTELYGIANPQQQPMAELWMGAHPKSSSRITTANGETVSLRDAIEKNKTAMLGEAVANRFGELPFLFKVLCAAQPLSIQVHPNKRNSEIGFAKENAAGIPMDAAERNYKDPNHKPELVFALTPFLAMNAFREFSDIVSLLQPVAGAHSAIAHFLQVPNAERLSQLFASLLNMQGEEKSRALAVLKAALNSQQGEPWQTIRVISEYYPDDSGLFSPLLLNVVKLNPGEAMFLFAETPHAYLQGVALEVMANSDNVLRAGLTPKYIDIPELVANVKFEPKPAGELLTAPVKSGAELDFPIPVDDFAFSLHDLALQETSIGQHSAAILFCVEGEAVLRKDEQRLVLKPGESAFIGADESPVNASGTGRLARVYNKL”, the “soluble on expression in E. coli” value is listed as “soluble”.
Next, “MSLKISAIELYEYDLTYSHGTYVMSKGRSAKQQPSNLVRVITDSGIEGWGEAATLSGNYLPVFAGSTRAALRELAPLLIGQDPRGSTHLQRLMSSLLMGQANAKNAFDVACWDIFGKSVDLPISALIGGVLSTELPIFEAVPLSSTEESLDYIGKRSAQGIMRYQIKIGDDPVKDAARARAIVKAFPDIFFFVDANAGYTLLEAQIAMRALDDTNLYVEQPCRDIADCAMLRKISGLPIVLDEAVLTHADLYRAKYEVSAAAVNIKLGRLGGITPAVAMRNAAQDLGMHFCIEDVWGGDVTAAAVSHVAASAFPENLMHTSFFNDWTNEHVAGYQPRSRNGRGAAPTGPGLGITVDRSLLGAPVASFSEGHHHHHH”: “soluble”.
The entry for “MFADRLFNAMERNEPAPGMVLVAAPSMESEDFARSVILIIEHSEYATFGVNLASRSDVAVFNVIPEWVPCVTKPQALYIGGPLNQQSVVGVGVTAQGVDAARVDNLTRLANRLVMVNLGADPEEIKPLVSGMRLFAGHAEWAPGQLAQEIENGDWFVAPALPSDVTAPGSVDVWGDVMRRQPMPLPLYSTFPVNVVGENLEHHHHHH” is “soluble”; for “DTETTGLPADETQFISGVDAPAPVSVGWQLLDFRFRCIEEVVCRLSTDEPVSPEAAALHGITDASLHGDDPHEVYARLLGAVSKAKVLSAHNLAFHRSVLVYDMRRRGFDPSPLFSLDDYCTMEAGVDFTHLYGSCGTWKLPRLTELFGVLYFGLPGVRTTYREKVRNDIRLVAACLHRMNPTTPSLE” it is “not soluble”.

The record behind these values is the DeepSol protein solubility set.
